The record followed here is publication PMC3089553 (The Journal of Biological Chemistry, 2011).

The target in the assay is T1, His-CTNNBL1(Δ1–76) (UniProt Q8WYA6 77-563).
T1 sequence (looked up): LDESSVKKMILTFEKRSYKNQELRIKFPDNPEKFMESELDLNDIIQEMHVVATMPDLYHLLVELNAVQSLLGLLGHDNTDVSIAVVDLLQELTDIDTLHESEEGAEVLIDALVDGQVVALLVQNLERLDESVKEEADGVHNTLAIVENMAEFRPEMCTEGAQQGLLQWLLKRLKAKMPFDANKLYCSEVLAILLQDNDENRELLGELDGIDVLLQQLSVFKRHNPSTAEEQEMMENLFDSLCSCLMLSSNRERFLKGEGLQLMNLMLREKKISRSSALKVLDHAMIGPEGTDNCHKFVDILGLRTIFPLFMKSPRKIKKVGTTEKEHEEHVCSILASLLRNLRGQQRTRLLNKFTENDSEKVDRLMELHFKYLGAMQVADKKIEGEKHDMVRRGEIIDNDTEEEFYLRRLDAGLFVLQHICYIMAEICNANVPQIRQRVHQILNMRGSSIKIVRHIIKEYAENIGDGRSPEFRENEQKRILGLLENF
The experiment in a line: ITC. In general terms: Isothermal titration calorimetry measures the heat released or taken up as one component is titrated into another.

With KKRKRKR [CDC5L NLS3 peptide], the “dH1 (site 1)” value is -1.48 ± 0.11 kcal/mol and the “dH2 (site 2)” value is -3.28 ± 0.15 kcal/mol.
